Reference: US11813311B2, “Treatment and prevention of metabolic diseases” (Singapore Health Services PTE LTD., priority 2019, dated 2023)

What was measured:
HSCs [1] = experiment: CCL2 secretion by HSCs (ELISA); type: cell-based, human; conditions: IL-11 5 ng/ml
Method: FIG. 31A to 31H. Neutralizing anti-IL-11 and anti-IL11 RA antibodies protect HFMCD-fed mice from hepatic fibrosis and inflammation. (A) CCL2 in the supernatants of HSCs (n=4/group) without stimulus (−), with IL-11, or with TGFβ1 in the presence of IgG, X203, or X209 by ELISA; IL-11 (5 ng m1^−1), TGFβ1 (5 ng m1^−1), IgG, X203, and X209 (2 μg m1^−1). (B) Representative gross liver images, (C) Western blots of hepatic ERK activation status, (D) representative (scale bars, 100 μm) and (E) quantification of Masson's Trichrome stained images of livers after 5 weeks of early X203 and X209 treatments. (F) Liver hydroxyproline content (the values of NC and HFMCD 1 week diets are the same as those used in FIG. 25C, the values of IgG 3 and 6 weeks are the same as those used in FIG. 22F, n≥5/group), (G) relative RNA expression levels of fibrosis markers in the livers after 5 weeks treatment of X203 and X209 by qPCR, which confirms data from RNA-seq (the values of NC 6 week for Col1a1, Col1a2, Col3a1, and Acta2 are the same as those shown in FIG. 28D, n≥5/group), and (H) serum ALT levels (the values of NC and HFMCD 1 week are the same as those used in FIG. 25D, the values of IgG 3 and 6 weeks (2 weeks and 5 weeks treatment, respectively) are the same as those used in FIG. 22G, n≥5/group). […]

ERK = ERK activation in HSCs (Western blot); type: cell-based, human; conditions: stimulation with IL-11
Method: Western blots were carried out on total protein extracts from HSCs and liver tissues. Both cells and frozen tissues were homogenized in radioimmunoprecipitation assay (RIPA) buffer containing protease and phosphatase inhibitors (Thermo Scientifics), followed by centrifugation to clear the lysate. Protein concentrations were determined by Bradford assay (Bio-Rad). Equal amount of protein lysates were separated by SDS-PAGE, transferred to PVDF membrane, and subjected to immunoblot analysis for the indicated primary antibodies. Proteins were visualized using the ECL detection system (Pierce) with the appropriate secondary antibodies.

IL-11Rα = IL-11Rα alone, low affinity; cited from earlier work
HSCs [2] = experiment: Matrigel invasion assay of HSCs; type: cell-based, human; conditions: 48 h
Method: The invasive behavior of human HSCs was assayed using 24-well Boyden chamber invasion assays (Cell Biolabs Inc.). Equal numbers of HSCs in serum-free HSC media were seeded in triplicates onto the ECM-coated matrigel and were allowed to invade towards HSC media containing 0.2% FBS. After 48 h of incubation with stimuli, media was aspirated and non-invasive cells were removed using cotton swabs. The cells that invaded towards the bottom chamber were stained with cell staining solution (Cell Biolabs Inc.) and invasive cells from 5 non-overlapping fields/membrane were imaged and counted under 40× magnification. For antibody inhibition experiments, HSCs were pretreated with X203, X209, or IgG control antibodies for 15 m prior to addition of stimuli.

[3] = system: primary human hepatocytes; experiment: Stimulation of primary human hepatocytes with IL11, hyperIL11, hyperIL6; type: cell-based
Method: Human hepatocytes (5200, ScienCell) were grown and maintained in hepatocyte media (5201, ScienCell) supplemented with 2% fetal bovine serum (FBS) and 1% Penicillin-streptomycin.
Primary human hepatocytes (5200, ScienCell) were maintained in hepatocyte medium ([…], ScienCell) supplemented with 2% fetal bovine serum, 1% Penicillin-streptomycin at 37° C. and 5% CO2. Hepatocytes (P2-P3) were serum-starved overnight unless otherwise specified in the methods prior to 24 hours stimulation with different doses of various recombinant proteins as described.
For surface IL11RA, IL6R, and gp130 analysis, primary human hepatocytes and THP-1 cells were stained with IL11RA, IL6R, or gp130 antibody and the corresponding Alexa Fluor 488 secondary antibody. Cell death analysis was performed by staining primary human hepatocytes with Dead Cell Apoptosis Kit with Annexin V FITC and PI (V13242, Thermo Fisher). PI+ve cells were then quantified with the flow cytometer (Fortessa, BD Biosciences) and analyzed with FlowJo version X software (TreeStar).
Alanine Aminotransferase (ALT) activity in the cell culture supernatant and mouse serum was measured using ALT Activity Assay Kit (ab105134, Abcam). Liver Glutathione (GSH) levels were measured using Glutathione Colorimetric Detection Kit (EIAGSHC, Thermo Fisher). Total hydroxyproline content in mouse livers was measured using Quickzyme Total Collagen assay kit (QZBtotco15, Quickzyme Biosciences). The levels of serum and liver triglycerides were measured using Triglyceride Assay Kit (ab65336, Abcam). Mouse serum levels of Aspartate Aminotransferase (AST) and cholesterol were measured using AST Assay Kit (ab105135, Abcam) and Cholesterol Assay Kit (ab65390; Abcam), respectively. All colorimetric assays were performed according to the manufacturer's protocol.
Western blots were carried out on total protein extracts from hepatocytes and liver tissues. Hepatocyte and liver tissue lysates were homogenized in RIPA Lysis and Extraction Buffer (89901, Thermo Scientific) containing protease and phosphatase inhibitors (Roche). Protein lysates were separated by SDS-PAGE and transferred to PVDF membranes. Protein bands were visualized using the ECL detection system (Pierce) with the appropriate secondary antibodies: anti-rabbit HRP or anti-mouse HRP.

HSCs [4] = experiment: HSC-to-myofibroblast transformation (ACTA2/Collagen I, Operetta); type: cell-based, human; conditions: IL-11 5 ng/ml, 24 h
Method: Cells (atrial fibroblasts, HSCs and hepatocytes) were grown and maintained at 37° C. and 5% CO2. The growth medium was renewed every 2-3 days and cells were passaged at 80-90% confluence using standard trypsinization techniques. All the experiments were carried out at low cell passage (P1-P2). Cells were serum-starved for 16 h prior to stimulations. Stimulated cells were compared to unstimulated cells that have been grown for the same duration under the same conditions (serum-free media), but without the stimuli.
HSCs (5300, ScienCell) were cultured in stellate cells complete media (5301, ScienCell) on poly-L-lysine-coated plates (2 μg/cm2, 0403, ScienCell).
The Operetta assay was performed mostly as described previously 11 with minor modifications described here: HSCs or hepatocytes were seeded in 96-well black CellCarrier plates (PerkinElmer) at a density of 5×10^3 cells per well. Following experimental conditions, cells were fixed in 4% paraformaldehyde (PFA, 28908, Thermo Fisher), permeabilized with 0.1% Triton X-100 (Sigma) and non-specific sites were blocked with 0.5% BSA and 0.1% Tween-20 in PBS. Cells were incubated overnight (4° C.) with primary antibodies (1:500), followed by incubation with the appropriate AlexaFluor 488 secondary antibodies (1:1000). Rhodamine Phalloidin staining (1:1000, R415, Thermo Fisher) was performed by overnight incubation (4° C.). […]

PSCs = experiment: Pancreatic stellate cell (PSC) activation in vitro; type: cell-based; conditions: treatment with IL-11, 24 hours
Method: FIGS. 48A and 48B. Box plots and images showing activation of pancreatic stellate cells (PSCs) to a αSMA-positive, collagen-expressing fibrogenic phenotype. (A) Quantification of high-content imaging assays for the percentage of ACTA2-positive cells and collagen I intensity/area following in vitro stimulation of PSCs for 24 hours with the indicated factors, in the presence or absence of neutralising anti-IL-11 RA antibody or IgG isotype control antibody. (B) Representative images for high-content imaging analysis of collagen I intensity/area following in vitro stimulation of PSCs for 24 hours with the indicated factors, in the presence of neutralising anti-IL-11 RA antibody or IgG isotype control antibody.

B1: IL-11: Interleukin 11; recombinant human IL11 (UniProtKB:P20809) used to stimulate cells (protein, listed as Homo sapiens)
chain: MNCVCRLVLVVLSLWPDTAVAPGPPPGPPRVSPDPRAELDSTVLLTRSLLADTRQLAAQLRDKFPADGDHNLDSLPTLAMSAGALGALQLPGVLTRLRADLLSYLRHVQWLRRAGGSSLKTLEPELGTLQARLDRLLRRLQLLMSRLALPQPPPDPPAPPLAPPSSAWGGIRAAHAILGGLHLTLDWAVRGLLLLKTRL
modifications: IL-11 (UniProt P20809)
notes: Interleukin 11; recombinant human IL11 (UniProtKB:P20809) used to stimulate cells
- HSC production of CCL2 (HSCs [1]): stimulated HSC production of CCL2
- ERK activation in HSCs (ERK): directly activates ERK
- Kd (IL-11Rα): ~10 nM
- matrix invasion by HSCs (HSCs [2]): promoted dose-dependent matrix invasion
- hepatocyte cell death ([3]; IL11 0.625 ng/ml to 20 ng/ml): caused hepatocyte cell death
- expression of stress fibres in hepatocytes ([3]; IL-11, dose range): progressive increase in expression of stress fibres
- release of ALT from hepatocytes ([3]; physiological levels of IL-11): dose-dependent release of ALT
- activation of HSCs into ACTA2+ve myofibroblasts (HSCs [4]): activated HSCs to a similar extent as TGFβ1 or PDGF
- PSC activation (PSCs): triggered
